Reference: US20210403582A1 (JACOBIO PHARMACEUTICALS, published 2021)
Read-outs that look alike come from different tables or passages of the source.

B1: 5D8 antibody (positive control) (antibody, human IgG1, kappa, V domains shown)
VH: QVQLQESGGGLVKPGGSLRLSCAASGFTFSHAWMHWVRQAPGKGLEWVGQIKAKSDDYATYYAESVKGRFTISRDDSKNTLYLQMNSLKTEDTAVYYCTCWEWDLDFWGQGTMVTVSS
VL: DIVMTQTPLSSPVTLGQPASISCRSSQSLLDSDGHTYLNWLQQRPGQPPRLLIYSVSNLESGVPDRFSGSGAGTDFTLKISRVEAEDVGVYYCMQATHAPPYTFGQGTKLEIKR
B2: P36-033 antibody (antibody, mouse IgG1, kappa, V domains shown)
VH: EVMLVESGGGLVQPGGSRRLSCAASGFTFSSYPMFWVRQTPEKRMEWVAYISNGGDSTYYPDTVKGRFTVSRDNAKNTLYLQMSSLKSVDTAIYYCVRPSARYDEWFAYWGQGTLVTVSA
VL: DIVMTQSHKFMSTSVGDRVSITCKASQDVSNAVAWYQQKPGQSPRLLIYWASFRHTGVPDRFTGSGSGTEYTLTISRVQAEDLALYYCQQHYNTPYTFGGGTRLEIKR
notes: From a phage display library of immunised mice; full-length chains with mouse constant regions; also called P36-033 mAb

Tests used:
[1] = biological target: T1, human LIF protein (human, UniProt P15018 23-202); assay: ELISA, human LIF coated at 1 µg/mL, A450
T1 construct: Bought recombinant protein (Sino Biological / Yiqiao Shenzhou 14890-HNAH) in most assays; also called recombinant human LIF protein; rhLIF
T1 sequence (P15018 23-202 limits assumed): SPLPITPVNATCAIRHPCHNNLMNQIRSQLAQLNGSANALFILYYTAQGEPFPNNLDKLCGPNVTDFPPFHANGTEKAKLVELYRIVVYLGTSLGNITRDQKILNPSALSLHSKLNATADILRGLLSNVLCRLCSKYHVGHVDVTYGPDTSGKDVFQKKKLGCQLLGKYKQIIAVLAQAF
Description: (§1) The recombinant human LIF protein was diluted to 1 μg/mL, was coated on the enzyme label plate, 100 μL of the protein was added into every well, and incubated overnight in 4° C. The enzyme label plates were taken out next day, and the liquid was discarded, and were washed with PBST three times and blocked with 2% BSA in PBS for 1 h at room temperature, then washed with PBST three times, and added anti-human LIF antibodies 38E10E1C11, 5D8 and P36-033 at different concentrations and incubated for 1 h at room temperature. The liquid was discarded, and the plates were washed with PBST four times. The plates were added with HRP-labeled goat anti-mouse Fab antibody or goat anti-human FC antibody and incubated for 1 h at room temperature. Then the liquid was discarded, and the plates were washed four times with PBST and incubated with TMB colored solution in 10 minutes at room temperature. Stop color development by adding 2 mol/L H₂SO₄, and the absorption value at 450 nm is quantitated using an automated plate photometer, and the results were shown in FIG. 1.

[2] = biological target: T2, human CNTF (human, UniProt P26441 1-200, limits assumed); assay: ELISA, human CNTF coated at 1 µg/mL, A450, bar chart of eight antibody concentrations
T2 sequence (looked up): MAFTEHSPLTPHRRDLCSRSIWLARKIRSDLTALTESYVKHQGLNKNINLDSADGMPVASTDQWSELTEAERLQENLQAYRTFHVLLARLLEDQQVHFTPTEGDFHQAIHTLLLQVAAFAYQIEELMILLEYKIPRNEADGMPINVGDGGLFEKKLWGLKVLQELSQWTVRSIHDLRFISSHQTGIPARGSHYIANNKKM
Description: (§2) The human LIF, human IL-6, human OSM, human CNTF (purchased from Sino biological) were coated on the enzyme label plate at a concentration of 1 μg/mL separately, and the anti-human LIF antibodies 38E10E1C11, P36-033 and 5D8 at different concentrations were added separately and incubated for 1 h at room temperature. Then the plates were washed four times with PBST and incubated with HRP-labeled goat anti-mouse FC secondary antibody for 1 h at room temperature. Then the plates were washed four times with PBST and added with TMB colored solution for color development at room temperature for 10 minutes. The absorption value at 450 nm is quantitated by the enzyme-labeling measuring instrument, and the data was analyzed and plotted using Origin pro 9 software.

[3] = biological target: T3, recombinant mouse LIF protein (mouse, UniProt P09056 24-203); assay: ELISA, mouse LIF coated at 1 µg/mL, A450
Description: (§3) The recombinant mouse LIF protein (purchased from ACRO Biosystems) was diluted to 1 μg/mL, and was coated on the enzyme label plate, 100 μL of protein was added into every well, and incubated overnight in 4° C. The enzyme label plates were taken out next day, and the liquid was discarded, and were washed with PBST three times and blocked with 2% BSA in PBS for 1 h at room temperature, then washed with PBST three times, and added anti-human LIF antibodies 38E10E1C11, 5D8 and P36-033 at different concentrations and incubated for 1 h at room temperature. The liquid was discarded, and the plates were washed with PBST four times. The plates were added with HRP-labeled goat anti-mouse Fab antibody or goat anti-human FC antibody and incubated for 1 h at room temperature. Then the liquid was discarded, and the plates were washed four times with PBST and incubated with TMB colored solution in 10 minutes at room temperature. Stop color development by adding 2 mol/L H₂SO₄, and the absorption value at 450 nm is quantitated using an automated plate photometer, and the results were shown in FIG. 2.

[4] = biological target: T3, recombinant mouse LIF protein; assay: ELISA, mouse LIF coated at 1 µg/mL, A450; remark: listed apart in the source
Description: as §3

[5] = biological target: T4, human OSM (human, UniProt P13725 26-221, limits assumed); assay: ELISA, human OSM coated at 1 µg/mL, A450, bar chart of eight antibody concentrations
T4 sequence (looked up): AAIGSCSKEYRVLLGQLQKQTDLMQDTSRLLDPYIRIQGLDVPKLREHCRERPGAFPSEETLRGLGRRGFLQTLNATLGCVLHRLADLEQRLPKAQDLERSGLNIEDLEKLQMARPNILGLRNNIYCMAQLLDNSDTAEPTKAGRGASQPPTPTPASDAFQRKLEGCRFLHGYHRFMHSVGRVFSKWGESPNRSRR
Description: as §2

[6] = biological target: T1, human LIF protein; assay: ELISA, human LIF coated at 1 µg/mL, A450; remark: listed apart in the source
Description: as §1

[7] = biological target: human IL-6 (human, UniProt P05231 30-212, limits assumed); assay: ELISA, human IL-6 coated at 1 µg/mL, A450
human IL-6, sequence (P05231 30-212 limits assumed): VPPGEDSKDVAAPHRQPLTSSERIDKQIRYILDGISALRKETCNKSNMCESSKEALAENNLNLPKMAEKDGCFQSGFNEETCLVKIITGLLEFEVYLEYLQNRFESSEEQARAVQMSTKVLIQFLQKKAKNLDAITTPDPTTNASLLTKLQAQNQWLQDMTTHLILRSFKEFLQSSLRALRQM
Description: as §2

[8] = biological target: T4, human OSM; assay: ELISA, human OSM coated at 1 µg/mL, A450
Description: as §2

[9] = biological target: T1, human LIF protein; assay: competition ELISA: human LIF coated at 1 µg/mL, GP130-Fc 12 µg/mL added together with the antibody, HRP anti-human Fc, A450
[10] = biological target: T2, human CNTF; assay: ELISA, human CNTF coated at 1 µg/mL, A450
Description: as §2

[11] = biological target: T1, human LIF protein; assay: competition ELISA: human LIF coated at 1 µg/mL, GP130-Fc 20 µg/mL added together with the antibody, A450
Description: The recombinant human LIF protein was coated on the enzyme label plates at a concentration of 1 μg/mL, GP130 protein (expressed fusedly with human FC) at a concentration of 20 μg/mL was added (50 μL/well), and the anti-human LIF antibodies P36-033 and 38E10E1C11 at different concentrations simultaneously were added separately (50 μL/well), and incubated for 2 h at room temperature. At the same time, the control wells added with antibodies and without GP130 protein were set. Incubated for 2 h at room temperature. After washed four times with PBST, incubated with HRP-labeled goat anti-mouse FC secondary antibody for 1 h at room temperature. Then the plates were washed four times with PBST and added with TMB coloured solution in for 10 minutes. The absorption value at 450 nm is quantitated using an enzyme-labelling measuring instrument, and the data was analyzed and plotted using Origin pro 9 software.

Binder	EC50 (read off the curve) [1] [µg/mL]	binding result [2]	EC50 (read off the curve) [3] [µg/mL]	EC50 (read off the curve) [4] [µg/mL]	binding result [5]	EC50 (read off the curve) [6] [µg/mL]	binding result [7]	binding result [4]	binding result [8]	IC50 (read off the curve) [9] [µg/mL]	binding result [10]	IC50 (read off the curve) [11] [µg/mL]
B1	~0.8	binds	~0.3	~0.4	binds	~0.2	–	–	–	–	–	–
B2	~0.05	–	–	–	–	–	no binding (tested: 25 ug/ml)	binds	no binding (tested: 25 ug/ml)	~0.1	no binding (tested: 25 ug/ml)	~0.1
